Reference: patent US20240391954A1, “MC4R AGONIST PEPTIDES” (The Regents of the University of Michigan, priority 2021, published 2024)
Positions of bridges follow the written chain, without caps; N, C: chain ends. Non-standard residues stand in square brackets, D forms with d. Cit = NC(=O)NCCC[C@H](N)C(=O)O; Aib = CC(C)(N)C(=O)O

Assays:
Assay in all cases: cell-based or functional assay
human MC3R = human MC3R (human, UniProt P41968 1-323)
human MC4R receptor [1] = target: T1, human MC4R receptor (human, UniProt P32245 1-332)
T1 sequence (P32245 whole entry): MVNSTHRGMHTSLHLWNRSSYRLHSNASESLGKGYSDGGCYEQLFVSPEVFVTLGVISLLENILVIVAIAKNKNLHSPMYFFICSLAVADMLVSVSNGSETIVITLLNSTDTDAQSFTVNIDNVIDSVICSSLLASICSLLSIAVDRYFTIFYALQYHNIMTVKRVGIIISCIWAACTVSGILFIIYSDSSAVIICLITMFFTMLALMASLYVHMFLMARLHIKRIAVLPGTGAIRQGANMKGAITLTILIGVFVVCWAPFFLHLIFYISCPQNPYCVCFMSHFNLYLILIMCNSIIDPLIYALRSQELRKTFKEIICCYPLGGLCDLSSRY

human MC4R receptor [2] = target: T1, human MC4R receptor; remark: listed apart in the source

Sequence of human MC3R (P41968 whole entry): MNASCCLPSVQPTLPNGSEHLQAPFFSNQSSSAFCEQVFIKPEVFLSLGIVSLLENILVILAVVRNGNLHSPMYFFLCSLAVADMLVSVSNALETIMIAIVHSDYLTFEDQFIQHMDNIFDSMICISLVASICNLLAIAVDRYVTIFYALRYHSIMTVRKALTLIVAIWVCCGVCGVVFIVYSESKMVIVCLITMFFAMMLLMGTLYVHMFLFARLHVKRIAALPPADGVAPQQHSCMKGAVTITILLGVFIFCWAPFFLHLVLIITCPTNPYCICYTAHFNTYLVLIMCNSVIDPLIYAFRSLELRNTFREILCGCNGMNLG

| Binder | % max activation (human MC3R) [%] | cAMP EC50 (human MC3R) [nM] | % max activation (human MC4R receptor [1]) [%] | cAMP EC50 (human MC4R receptor [1]) [nM] | MC4R selectivity vs MC1R (human MC4R receptor [2]) | MC4R selectivity vs MC3R (human MC4R receptor [2]) |
| --- | --- | --- | --- | --- | --- | --- |
| Ac-C[Aib][Cit][dF]RFC-NH2 (disulfide 1-7; SMILES CC(=O)N[C@H]1CSSC[C@@H](C(N)=O)NC(=O)[C@H](Cc2ccccc2)NC(=O)[C@H](CCCNC(=N)N)NC(=O)[C@@H](Cc2ccccc2)NC(=O)[C@H](CCCNC(N)=O)NC(=O)C(C)(C)NC1=O) [CTX-1636] | 44 | 7460 | 102 | 791 | > 12 | 9.44 |
| Ac-C[Aib]H[dF]RFC-NH2 (disulfide 1-7; SMILES CC(=O)N[C@H]1CSSC[C@@H](C(N)=O)NC(=O)[C@H](Cc2ccccc2)NC(=O)[C@H](CCCNC(=N)N)NC(=O)[C@@H](Cc2ccccc2)NC(=O)[C@H](Cc2c[nH]cn2)NC(=O)C(C)(C)NC1=O) [CTX-1634] | 94 | 56 | 107 | 8.5 | 4.02 | 6.68 |
| Ac-C[Aib]R[dF]RFC-NH2 (disulfide 1-7; SMILES CC(=O)N[C@H]1CSSC[C@@H](C(N)=O)NC(=O)[C@H](Cc2ccccc2)NC(=O)[C@H](CCCNC(=N)N)NC(=O)[C@@H](Cc2ccccc2)NC(=O)[C@H](CCCNC(=N)N)NC(=O)C(C)(C)NC1=O) [CTX-1635] | 70 | 380 | 112 | 67 | 1.19 | 5.7 |
| Ac-C[Aib][Cit][dF]RWC-NH2 (disulfide 1-7; SMILES CC(=O)N[C@H]1CSSC[C@@H](C(N)=O)NC(=O)[C@H](Cc2c[nH]c3ccccc23)NC(=O)[C@H](CCCNC(=N)N)NC(=O)[C@@H](Cc2ccccc2)NC(=O)[C@H](CCCNC(N)=O)NC(=O)C(C)(C)NC1=O) [CTX-1633] | 45 | 290 | 110 | 2.8 | 942 | 104 |

Now from value to binder:

| % max activation (human MC3R) [%] | cAMP EC50 (human MC3R) [nM] | % max activation (human MC4R receptor [1]) [%] | cAMP EC50 (human MC4R receptor [1]) [nM] | MC4R selectivity vs MC1R (human MC4R receptor [2]) | MC4R selectivity vs MC3R (human MC4R receptor [2]) | Binder |
| --- | --- | --- | --- | --- | --- | --- |
| 44 | 7690 | 88 | 2730 | 8.32 | 2.82 | Ac-CG[Cit][dF]RFC-NH2 (disulfide 1-7; SMILES CC(=O)N[C@H]1CSSC[C@@H](C(N)=O)NC(=O)[C@H](Cc2ccccc2)NC(=O)[C@H](CCCNC(=N)N)NC(=O)[C@@H](Cc2ccccc2)NC(=O)[C@H](CCCNC(N)=O)NC(=O)CNC1=O) [CTX-1639] |
| 75 | 408 | 110 | 351 | 1.04 | 1.66 | Ac-CGR[dF]RFC-NH2 (disulfide 1-7; SMILES CC(=O)N[C@H]1CSSC[C@@H](C(N)=O)NC(=O)[C@H](Cc2ccccc2)NC(=O)[C@H](CCCNC(=N)N)NC(=O)[C@@H](Cc2ccccc2)NC(=O)[C@H](CCCNC(=N)N)NC(=O)CNC1=O) [CTX-1638] |
| 90 | 83 | 107 | 2.9 | 13 | 29 | {CH2CO}-[dA]R[dF]RWC-NH2 (thioether N-6; SMILES C[C@H]1NC(=O)CSC[C@@H](C(N)=O)NC(=O)[C@H](Cc2c[nH]c3ccccc23)NC(=O)[C@H](CCCNC(=N)N)NC(=O)[C@@H](Cc2ccccc2)NC(=O)[C@H](CCCNC(=N)N)NC1=O) [CTX-1642] |
